Measured values as given in patent US20110104179A1.

Legend:
Assay in all cases: cell-based or functional assay
[1] = molecular target: Arg- and Lys-specific proteinases of P. gingivalis ATCC 33277 whole cells (DQ BSA assay) (Porphyromonas gingivalis ATCC 33277)
[2] = molecular target: Arg-gingipains of P. gingivalis ATCC 33277 whole cells (Porphyromonas gingivalis ATCC 33277)
[3] = molecular target: Lys-gingipain (Kgp) of P. gingivalis ATCC 33277 whole cells (Porphyromonas gingivalis ATCC 33277) (UniProt B2RLK2)

Q: “Non-glycosylated κ-casein(106-169) (from UniProt P02668 127-190) (peptide)” was tested. Which inhibition of proteinase activity against fluorescent BSA (DQ Green BSA), whole ATCC 33277 cells, peptide 500 µM [1] did it give?
A: The inhibition of proteinase activity against fluorescent BSA (DQ Green BSA), whole ATCC 33277 cells, peptide 500 µM was 60 % inhibition.

Q: How did the Activity with ATCC33277, Arg-gingipains, peptide 100 µM alone (no inhibitor 29.23 + 0.06) [2] turn out when αS1-casein(11-23) (peptide) was run?
A: The Activity with ATCC33277, Arg-gingipains, peptide 100 µM alone (no inhibitor 29.23 + 0.06) was 18.

Q: What about the Protease activity (%), Arg assay, ATCC 33277 whole cell, peptide 100 µM [2] of the same substance?
A: Its Protease activity (%), Arg assay, ATCC 33277 whole cell, peptide 100 µM is 62%.

Q: And the Protease activity (%), Arg assay, ATCC 33277 whole cell, peptide 200 µM [2]?
A: The Protease activity (%), Arg assay, ATCC 33277 whole cell, peptide 200 µM was 39%.

Q: What about the Protease activity (%), Arg assay, ATCC 33277 whole cell, peptide 300 µM [2] of the same substance?
A: Its Protease activity (%), Arg assay, ATCC 33277 whole cell, peptide 300 µM is 38%.

Q: What about the inhibition of Arg-specific proteolytic activity, whole cells, peptide 100 µM alone [2] of the same substance?
A: The inhibition of Arg-specific proteolytic activity, whole cells, peptide 100 µM alone was 40 % inhibition.

Q: And the inhibition of Arg-specific proteolytic activity, whole cells, peptide and ZnCl2 in a 1:4 ratio [2]?
A: The inhibition of Arg-specific proteolytic activity, whole cells, peptide and ZnCl2 in a 1:4 ratio was 70 % inhibition.

Q: What about the Protease activity (%), Lys assay, ATCC 33277 whole cell, peptide 100 µM [3] of the same substance?
A: The Protease activity (%), Lys assay, ATCC 33277 whole cell, peptide 100 µM was 64%.

Q: What about the Protease activity (%), Lys assay, ATCC 33277 whole cell, peptide 200 µM [3] of the same substance?
A: The Protease activity (%), Lys assay, ATCC 33277 whole cell, peptide 200 µM was 43%.

Q: And the Protease activity (%), Lys assay, ATCC 33277 whole cell, peptide 300 µM [3]?
A: The Protease activity (%), Lys assay, ATCC 33277 whole cell, peptide 300 µM was 34%.

Q: And the inhibition in the Lys-specific protease assays, whole cells, inhibitor mixture with ZnCl2 [3]?
A: Its inhibition in the Lys-specific protease assays, whole cells, inhibitor mixture with ZnCl2 is 85 % inhibition.

Q: With β-casein(193-205) (peptide) as the substance, how does the inhibition of whole cell Arg-specific proteolytic activity, peptide 200 µM [2] read?
A: The inhibition of whole cell Arg-specific proteolytic activity, peptide 200 µM was 15 % inhibition.

Q: For β-casein(193-209) (peptide), which Activity with ATCC33277, Arg-gingipains, peptide 100 µM alone (no inhibitor 29.23 + 0.06) [2] is on record?
A: The Activity with ATCC33277, Arg-gingipains, peptide 100 µM alone (no inhibitor 29.23 + 0.06) was 20.

Q: And the Protease activity (%), Arg assay, ATCC 33277 whole cell, peptide 100 µM [2]?
A: The Protease activity (%), Arg assay, ATCC 33277 whole cell, peptide 100 µM was 69%.

Q: And the Protease activity (%), Arg assay, ATCC 33277 whole cell, peptide 200 µM [2]?
A: The Protease activity (%), Arg assay, ATCC 33277 whole cell, peptide 200 µM was 50%.

Q: What about the Protease activity (%), Arg assay, ATCC 33277 whole cell, peptide 300 µM [2] of the same substance?
A: Its Protease activity (%), Arg assay, ATCC 33277 whole cell, peptide 300 µM is 50%.

Q: What about the inhibition of Arg-specific proteolytic activity, whole cells, peptide 100 µM alone [2] of the same substance?
A: Its inhibition of Arg-specific proteolytic activity, whole cells, peptide 100 µM alone is 30 % inhibition.

Q: What about the inhibition of Arg-specific proteolytic activity, whole cells, peptide and ZnCl2 in a 1:4 ratio [2] of the same substance?
A: The inhibition of Arg-specific proteolytic activity, whole cells, peptide and ZnCl2 in a 1:4 ratio was 70 % inhibition.

Q: What about the Protease activity (%), Lys assay, ATCC 33277 whole cell, peptide 100 µM [3] of the same substance?
A: The Protease activity (%), Lys assay, ATCC 33277 whole cell, peptide 100 µM was 71%.

Q: What about the Protease activity (%), Lys assay, ATCC 33277 whole cell, peptide 200 µM [3] of the same substance?
A: The Protease activity (%), Lys assay, ATCC 33277 whole cell, peptide 200 µM was 59%.

Q: And the Protease activity (%), Lys assay, ATCC 33277 whole cell, peptide 300 µM [3]?
A: Its Protease activity (%), Lys assay, ATCC 33277 whole cell, peptide 300 µM is 49%.

Q: What about the inhibition in the Lys-specific protease assays, whole cells, peptide: ZnCl2 mixture [3] of the same substance?
A: Its inhibition in the Lys-specific protease assays, whole cells, peptide: ZnCl2 mixture is 90 % inhibition.

Q: How did the inhibition of protease activity in the fluorescence assay (DQ Green BSA), whole ATCC 33277 cells, peptide 500 µM [1] turn out when “κ-casein(106-137) (from UniProt P02668 127-158) (peptide)” was run?
A: The inhibition of protease activity in the fluorescence assay (DQ Green BSA), whole ATCC 33277 cells, peptide 500 µM was 37 % inhibition.

Q: With “κ-casein(109-137) (peptide; modification not given)” as the substance, how does the Protease activity (%), Arg assay, ATCC 33277 whole cell, peptide 50 µM [2] read?
A: The Protease activity (%), Arg assay, ATCC 33277 whole cell, peptide 50 µM was 84%.

Q: And the Protease activity (%), Arg assay, ATCC 33277 whole cell, peptide 100 µM [2]?
A: Its Protease activity (%), Arg assay, ATCC 33277 whole cell, peptide 100 µM is 36%.

Q: What does the source list for κ-casein(117-123) (peptide)?
A: Arg-Specific Activity (%), ATCC 33277 whole cells, BApNA, peptide 200 µM [2]: 111%; Arg-Specific Activity (%), ATCC 33277 whole cells, BApNA, peptide 500 µM [2]: 90%; Arg-Specific Activity (%), ATCC 33277 whole cells, BApNA, peptide 1000 µM [2]: 92%

Q: What does the source list for κ-casein(127-137) (peptide)?
A: Arg-Specific Activity (%), ATCC 33277 whole cells, BApNA, peptide 200 µM [2]: 102%; Arg-Specific Activity (%), ATCC 33277 whole cells, BApNA, peptide 500 µM [2]: 97%; Arg-Specific Activity (%), ATCC 33277 whole cells, BApNA, peptide 1000 µM [2]: 82%
